Results: paper PMC11255602 (Protein Science : A Publication of the Protein Society, 2024)

Target: the molecule itself
Test: native gel or EMSA

Protein | stoichiometry N
tetramer interface mutant (TIM) PRMT1 Y262A/Y304A/L341A (enzyme, human (rat sequence humanized by H161Y), UniProt Q99873-3 1-353, looked up) MAAAEAANCIMEVSCGQAESSEKPNAEDMTSKDYYFDSYAHFGIHEEMLKDEVRTLTYRNSMFHNRHLFKDKVVLDVGSGTGILCMFAAKAGARKVIGIECSSISDYAVKIVKANKLDHVVTIIKGKVEEVELPVEKVDIIISEWMGYCLFYESMLNTVLYARDKWLAPDGLIFPDRATLYVTAIEDRQYKDYKIHWWENVYGFDMSCIKDVAIKEPLVDVVDPKQLVTNACLIKEVDIYTVKVEDLTFTSPFCLQVKRNDAVHALVAYFNIEFTRCHKRTGFSTSPESPYTHWKQTVFYMEDALTVKTGEEIFGTIGMRPNAKNNRDLDFTIDLDFKGQACELSCSTDYRMR | 2
tetramer interface mutant 2 (TIM2) PRMT1 H64A/R66A/H278A (enzyme, human (rat sequence humanized by H161Y), UniProt Q99873-3 1-353, looked up) MAAAEAANCIMEVSCGQAESSEKPNAEDMTSKDYYFDSYAHFGIHEEMLKDEVRTLTYRNSMFANAHLFKDKVVLDVGSGTGILCMFAAKAGARKVIGIECSSISDYAVKIVKANKLDHVVTIIKGKVEEVELPVEKVDIIISEWMGYCLFYESMLNTVLYARDKWLAPDGLIFPDRATLYVTAIEDRQYKDYKIHWWENVYGFDMSCIKDVAIKEPLVDVVDPKQLVTNACLIKEVDIYTVKVEDLTFTSPFCLQVKRNDYVHALVAYFNIEFTRCAKRTGFSTSPESPYTHWKQTVFYMEDYLTVKTGEEIFGTIGMRPNAKNNRDLDFTIDLDFKGQLCELSCSTDYRMR | 2
H293A/E153A (HE) PRMT1 (enzyme, human (rat sequence humanized by H161Y), UniProt Q99873-3 1-353, looked up) MAAAEAANCIMEVSCGQAESSEKPNAEDMTSKDYYFDSYAHFGIHEEMLKDEVRTLTYRNSMFHNRHLFKDKVVLDVGSGTGILCMFAAKAGARKVIGIECSSISDYAVKIVKANKLDHVVTIIKGKVEEVELPVEKVDIIISEWMGYCLFYASMLNTVLYARDKWLAPDGLIFPDRATLYVTAIEDRQYKDYKIHWWENVYGFDMSCIKDVAIKEPLVDVVDPKQLVTNACLIKEVDIYTVKVEDLTFTSPFCLQVKRNDYVHALVAYFNIEFTRCHKRTGFSTSPESPYTAWKQTVFYMEDYLTVKTGEEIFGTIGMRPNAKNNRDLDFTIDLDFKGQLCELSCSTDYRMR | 4
